We go through one substance from patent publication US20250011363A1, “OPTIMIZED SHORTENED PEPTIDE THAT BINDS TO ACETYLCHOLINE RECEPTOR, AND USE THEREOF” (SKINMED CO., LTD., priority 2021, published 2025).

Experiment [1] addresses acetylcholine receptor on acetylcholine receptor-overexpressing TE671 cells. Description: cell-based or functional assay.
In another experiment the target is acetylcholine receptor. Description: SPR, AchR immobilized on chip. (In general: Surface plasmon resonance follows binding to a sensor surface in real time, without labels.)

Regarding Synake (peptide), in experiment [1], the inhibition of acetylcholine receptors (calcium imaging with Fura-2-AM, TE671 cells, nicotine 400 uM) turned out to be 500 µM. Also, in the experiment with acetylcholine receptor, the Binding affinity (RU) was found to be 14 RU.
